Experimental data from patent US20160355553A1 (Janssen / Centocor, published 2016).

Key:
[1] = target: T1, FL4-06 B-m2-CL1+5 (influenza B virus, UniProt P03461 6-574); experiment: FACS, transfected cells
T1 chain: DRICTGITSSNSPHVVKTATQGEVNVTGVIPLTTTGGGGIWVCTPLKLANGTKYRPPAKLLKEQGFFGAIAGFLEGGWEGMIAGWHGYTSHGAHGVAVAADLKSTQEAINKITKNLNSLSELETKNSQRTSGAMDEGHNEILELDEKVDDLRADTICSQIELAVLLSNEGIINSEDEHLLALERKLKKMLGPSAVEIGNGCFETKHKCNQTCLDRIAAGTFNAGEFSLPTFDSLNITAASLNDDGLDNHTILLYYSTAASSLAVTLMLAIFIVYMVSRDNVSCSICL

[2] = target: T2, Mal2506-04 B-m2 (influenza B virus, UniProt P03461 6-574); experiment: FACS, transfected cells
T2 chain: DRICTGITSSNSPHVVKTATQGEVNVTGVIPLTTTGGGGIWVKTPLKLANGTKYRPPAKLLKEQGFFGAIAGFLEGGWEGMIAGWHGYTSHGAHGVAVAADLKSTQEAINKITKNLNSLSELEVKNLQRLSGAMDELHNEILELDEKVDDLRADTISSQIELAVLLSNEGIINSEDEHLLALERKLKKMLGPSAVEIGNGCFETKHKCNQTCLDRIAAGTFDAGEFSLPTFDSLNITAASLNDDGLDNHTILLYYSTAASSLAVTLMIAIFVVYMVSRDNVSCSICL

[3] = target: T3, Mal2506-04 B-m2-CL1+5-GCN4b (influenza B virus, UniProt P03461 6-574); experiment: FACS, transfected cells
T3 chain: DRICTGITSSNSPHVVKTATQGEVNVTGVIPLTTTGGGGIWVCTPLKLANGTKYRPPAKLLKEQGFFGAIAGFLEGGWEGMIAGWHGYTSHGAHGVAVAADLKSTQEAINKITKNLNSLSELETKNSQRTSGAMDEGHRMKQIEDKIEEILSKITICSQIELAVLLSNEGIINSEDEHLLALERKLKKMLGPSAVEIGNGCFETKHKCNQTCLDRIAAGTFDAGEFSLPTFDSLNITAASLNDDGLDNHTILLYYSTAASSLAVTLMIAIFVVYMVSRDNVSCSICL

[4] = target: T4, Mal2506-04 B-m2-CL1+5 (influenza B virus, UniProt P03461 6-574); experiment: FACS, transfected cells
T4 chain: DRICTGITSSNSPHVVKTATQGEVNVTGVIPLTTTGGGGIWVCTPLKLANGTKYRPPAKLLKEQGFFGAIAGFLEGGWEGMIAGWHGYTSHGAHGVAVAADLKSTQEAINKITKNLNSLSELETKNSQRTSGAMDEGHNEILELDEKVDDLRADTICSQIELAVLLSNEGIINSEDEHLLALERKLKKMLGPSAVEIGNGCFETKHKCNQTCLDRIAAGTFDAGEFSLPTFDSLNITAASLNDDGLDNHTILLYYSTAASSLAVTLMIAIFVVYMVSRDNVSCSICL

[5] = target: FL4-06 B-m2 (influenza B virus, UniProt P03461 6-574); experiment: FACS, transfected cells
[6] = target: T5, Mal2506-04 B-m2-CL1+5-GCN4a (influenza B virus, UniProt P03461 6-574); experiment: FACS, transfected cells
T5 chain: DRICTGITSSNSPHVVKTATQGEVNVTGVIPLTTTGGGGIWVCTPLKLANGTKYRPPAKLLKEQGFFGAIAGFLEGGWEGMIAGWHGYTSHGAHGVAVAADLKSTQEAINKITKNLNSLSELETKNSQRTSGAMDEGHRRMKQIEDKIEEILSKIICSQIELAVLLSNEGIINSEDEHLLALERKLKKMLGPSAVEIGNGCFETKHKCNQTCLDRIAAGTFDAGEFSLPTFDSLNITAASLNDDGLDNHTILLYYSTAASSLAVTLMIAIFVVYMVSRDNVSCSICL

[7] = target: T6, FL4-06 B-m2-CL1+5-GCN4b (influenza B virus, UniProt P03461 6-574); experiment: FACS, transfected cells
T6 chain: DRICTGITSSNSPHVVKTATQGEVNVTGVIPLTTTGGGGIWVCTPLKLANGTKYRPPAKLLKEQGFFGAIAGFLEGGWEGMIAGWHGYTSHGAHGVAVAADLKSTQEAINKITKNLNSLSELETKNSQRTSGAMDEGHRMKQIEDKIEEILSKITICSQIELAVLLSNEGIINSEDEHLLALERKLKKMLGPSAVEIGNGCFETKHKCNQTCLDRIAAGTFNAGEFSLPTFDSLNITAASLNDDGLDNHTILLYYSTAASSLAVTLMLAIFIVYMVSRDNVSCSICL

[8] = target: hemagglutinin of influenza virus A/Hiroshima/52/2005 (H3) (influenza A virus H3); experiment: cell-based or functional assay
[9] = target: hemagglutinin of influenza virus A/Hong Kong/1073/99 (H9) (influenza A virus H9); experiment: cell-based or functional assay
[10] = target: hemagglutinin of influenza virus A/Ck/HK/SSP176/09 (H9) (influenza A virus H9); experiment: cell-based or functional assay
[11] = target: hemagglutinin of influenza virus A/EW/MPD411/07 (H6) (influenza A virus H6); experiment: cell-based or functional assay
[12] = target: hemagglutinin of influenza virus A/Brisbane/59/2007 (H1) (influenza A virus H1N1, UniProt B4URD6 18-565); experiment: cell-based or functional assay
[13] = target: hemagglutinin of influenza virus A/Panama/2007/1999 (H3) (influenza A virus H3); experiment: cell-based or functional assay
[14] = target: hemagglutinin of influenza virus A/Brisbane/10/2007 (H3) (influenza A virus H3); experiment: cell-based or functional assay
[15] = target: hemagglutinin of influenza virus A/Chick/Germany/N/49 (H10) (influenza A virus H10); experiment: cell-based or functional assay

B1: CR9114 (antibody, V domains shown)
VH: QVQLVQSGAEVKKPGSSVKVSCKSSGGTSNNYAISWVRQAPGQGLDWMGGISPIFGSTAYAQKFQGRVTISADIFSNTAYMELNSLTSEDTAVYFCARHGNYYYYSGMDVWGQGTTVTVSS
VL: SYVLTQPPAVSGTPGQRVTISCSGSDSNIGRRSVNWYQQFPGTAPKLLIYSNDQRPSVVPDRFSGSKSGTSASLAISGLQSEDEAEYYCAAWDDSLKGAVFGGGTQLTVL
B1: no binding [1]; no binding [2]; no binding [3]. B1: no binding [4]; no binding [5]; no binding [6]. For the same binder, the binding result [7] was “no binding”, the “virus neutralization assay on MDCK cells, geomean IC50” value (“virus neutralization assay” below) [8] was 12.5 µg/mL and the “virus neutralization assay” value [9] was 4.4 µg/mL. The “virus neutralization assay” value [10] was 6.3 µg/mL, the “virus neutralization assay” value [11] was 10.5 µg/mL and the “virus neutralization assay” value [12] was 2.6 µg/mL. For the same binder, the “virus neutralization assay” value [13] was 39.9 µg/mL, the “virus neutralization assay” value [14] was 5.6 µg/mL and the “virus neutralization assay” value [15] was 15.7 µg/mL.
